# B1: HDV Ribozyme (parent)
# chain: GGCCGGCAUGGUCCCAGCCUCCUCGCUGGCGCCGGCUGGGCAACAUUCCGAGGGGACCGUCCCCUCGGUAAUGGCGAAUGGGACCCA
# Variants of: B1
# Experiment: self-cleavage, relative activity (ratio to wild type); higher = more cleavage; co-transcriptional
row,Variant,self-cleavage
1,G1A U65G,0
2,C61G U79G,0.437
3,U37G A70C,0.312
4,G68C C84U,0.796
5,G10A U79G,0.232
6,U9G A43G,0.475
7,C7U C64A,0.923
8,G52U U60A,1.05
9,G2C U20C,0.0536
10,C22U G73A,0.192
11,G34U G82A,0.123
12,C36A C57U,0.102
13,C48U G67A,0.818
14,G73U C86G,0.354
15,U12A U65C,0.506
16,U37A U72A,0.125
17,C63U G74U,0.583
18,A42U C64U,0.594
19,U60A C64U,1.13
20,A16U A77G,0.739
21,G54C G82U,0.448
22,G74C G81U,0.0831
23,G2U U12C,0.0241
24,G2U U12G,0.0346

row,Variant,self-cleavage
1,G52U C63A,0.806
2,A16C C64A,0.895
3,C7U C58A,0.88
4,G25C U47A,0.0639
5,C18U U20A,0.0339
6,C41G U69C,0.772
7,C26U C85A,0.96
8,G10A U47G,0.853
9,C62A G81U,0.266
10,G28C A77G,0.119
11,C57G U60C,1.07
12,C32A U37C,0.203
13,C22G C66U,0.0308
14,C3G C21U,0.0326
15,C18A C24U,0.104
16,G28A A77C,0.119
17,C19A U27C,0.0536
18,A45G C86U,0.806
19,C7G U12G,0
20,G5U G54U,0.612
21,G11A C22A,0.0443
22,C61G U65C,1.24
23,C7A G59C,0.578
24,C4G A45C,0.0554

row,Variant,self-cleavage
1,A42G C61G,0.831
2,U9C C64G,0.95
3,A16U C84A,0.665
4,G2U G76A,0.112
5,G31A C85G,0.367
6,C19U G55U,0.0573
7,G40U A70C,0.391
8,C22A U69G,0.394
9,A71C G76C,0.848
10,C26G G74U,0.359
11,C66A A87U,0.994
12,A43G G81U,0.138
13,G28C U65G,0.0665
14,C3U C32U,0.338
15,C63U C66G,0.88
16,A45C C62U,0.895
17,G54C G59C,1.21
18,A45G G76U,1.12
19,A51U C85G,0.831
20,U23G C63U,0.469
21,C3G U23C,0.48
22,G40U G73U,0.424
23,C36U A78G,0.128
24,C64U U69A,1.02

row,Variant,self-cleavage
1,C30U C62A,0.562
2,G35C A87U,0.208
3,C19G C85A,0.148
4,U9A C36A,0.122
5,C61U A78U,0.326
6,G6U A51U,0.739
7,G39U G40U,0.451
8,A43G C57G,0.356
9,C21G G59C,0.106
10,C24U C84U,0.53
11,A16C G67C,0.692
12,C15U C61U,0.882
13,U12A C57G,0.208
14,G17A C41A,0.47
15,G31U C61U,0.478
16,U9C U72C,0.485
17,C26A A78G,0.831
18,C13G C33A,0.0978
19,A77C A78G,0.151
20,C41G C44A,0.192
21,G67C A77G,0.508
22,A77C C84A,0.128
23,G28C U37C,0.101
24,G53C G55C,1.05

row,Variant,self-cleavage
1,U20A G35A,0.158
2,G35C A71U,0.128
3,G35C G76U,0.465
4,C15A C57A,0.764
5,G11U C85G,0.689
6,C63A A83C,0.271
7,A45U U72A,0.831
8,C19A G82A,0.113
9,U46A G82U,0.119
10,U23G C26A,0.739
11,C57A G74U,0.356
12,A56U G76C,1.14
13,G34A U65A,0.0692
14,C15G G76C,0.467
15,G1A G54A,0.172
16,C13G G59C,0.104
17,G40C G74A,0.0978
18,C7U G50A,0.786
19,G2U A87U,0.0747
20,C15A C86A,0.665
21,C14A G82C,0.172
22,G10C C49A,0.443
23,C7A U79A,0.249
24,G28A G76C,0.156

row,Variant,self-cleavage
1,C58A A87C,1.09
2,U65G G68U,0.491
3,C30G G55A,0.0852
4,C14G C75A,0.111
5,C64G C66A,0.888
6,U65G A77G,0.831
7,U9C C75G,0
8,C36G A71U,0.095
9,C57G C61G,1.08
10,C4G U46G,0
11,U47C A83G,0.612
12,C64A G76A,0.997
13,G2C C7A,0.0268
14,U37G C49A,0.0573
15,G68C A71C,0.554
16,G34U G52A,0.208
17,C3U G81A,0.17
18,A42U U47G,0.615
19,G50A C61G,0.91
20,C33A A78C,0.0997
21,G2A C84A,0.0519
22,U23G G76A,0.895
23,G2C G67U,0.026
24,C44A G81C,0.178

row,Variant,self-cleavage
1,C61A G68U,0.623
2,C32G C36A,0.125
3,G1U C58G,0.318
4,C4A C84U,0.172
5,G54C C84U,0.665
6,G82U C84G,0.249
7,U9A C85A,0.902
8,G59C G67U,1.09
9,C19U C61A,0.243
10,U12C G38U,0.0739
11,C44G A71U,0.962
12,G35C C57G,0.201
13,C44U A78C,0.113
14,C26A G38U,0.208
15,G53A C57G,0.992
16,G2A G5U,0.0453
17,C58G C64U,1.08
18,G1C G73U,0.0426
19,G1C U47G,0.128
20,C3A U79A,0.175
21,C62A,0.979
22,C57A C58G,1.14
23,C36G A78G,0.0639
